These results are taken from the supplement of paper PMC9112550, “Optimization of the antimicrobial peptide Bac7 by deep mutational scanning” (BMC Biology, 2022).
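Further: peptides expressed intracellularly from a pBAD plasmid library in pooled LB shake-flask culture, induced with 0.3% L-arabinose, DNA abundance read by NGS, three biological replicates, DESeq2 with apeglm shrinkage.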

This data set has as its system Escherichia coli TOP10. In words: shrunken log2 fold change of peptide-encoding DNA abundance (4.5 h post-induction vs induction); higher = less antimicrobial activity (less host growth inhibition). The conditions noted are these: time post-induction: 4.5 h; library: site-saturation at positions 5, 18, 19, 20.
Regarding RRIRNRPPRLPRPRPRPDAHPRP, the “shrunken log2 fold change” value came out at 0.0677. Turning to RRIRQRPPRLPRPRPRPIMLPRP, the “shrunken log2 fold change” value was -0.433.

Take RRIRRRPPRLPRPRPRPPWIPRP: the “shrunken log2 fold change” value is 0.365. Turning to RRIRTRPPRLPRPRPRPTFDPRP, the “shrunken log2 fold change” value is -0.0153. The result for RRIRQRPPRLPRPRPRPQHQPRP reads 0.26; that for RRIRVRPPRLPRPRPRPGMNPRP, -0.145.

On to RRIRLRPPRLPRPRPRPVGMPRP, for which the “shrunken log2 fold change” value is -0.0033. Turning to RRIRTRPPRLPRPRPRPYVDPRP, the “shrunken log2 fold change” value was determined as 0.0214. As for RRIRMRPPRLPRPRPRPWARPRP, the “shrunken log2 fold change” value was 0.306.

On to RRIRPRPPRLPRPRPRPWMNPRP, for which the “shrunken log2 fold change” value is -0.0141.

For the sequence RRIRQRPPRLPRPRPRPLYDPRP, the “shrunken log2 fold change” value is -0.226.

As for RRIRARPPRLPRPRPRPDIVPRP, the “shrunken log2 fold change” value worked out at 0.244. As for RRIRFRPPRLPRPRPRPLNCPRP, the “shrunken log2 fold change” value is -0.125.

As for RRIRDRPPRLPRPRPRPRRRPRP, the “shrunken log2 fold change” value came to 0.736. RRIRFRPPRLPRPRPRPVVDPRP: the “shrunken log2 fold change” value was -0.232.

On to RRIRLRPPRLPRPRPRPDHEPRP, for which the “shrunken log2 fold change” value stood at 0.0172. On to RRIRERPPRLPRPRPRPNWLPRP, for which the “shrunken log2 fold change” value is -0.00723.

On to RRIRFRPPRLPRPRPRPYKVPRP, for which the “shrunken log2 fold change” value is -0.614. For the sequence RRIRDRPPRLPRPRPRPGQCPRP, the “shrunken log2 fold change” value was 0.131. Take RRIRRRPPRLPRPRPRPSIAPRP: the “shrunken log2 fold change” value stood at 0.238.

In the case of RRIRRRPPRLPRPRPRPHPDPRP, the “shrunken log2 fold change” value turned out to be 0.474. Take RRIRFRPPRLPRPRPRPMTSPRP: the “shrunken log2 fold change” value was -0.552. Consider RRIRLRPPRLPRPRPRPVRKPRP, for which the “shrunken log2 fold change” value is -0.0647.

For the sequence RRIRHRPPRLPRPRPRPKHAPRP, the “shrunken log2 fold change” value worked out at 0.126.

For RRIRARPPRLPRPRPRPFFQPRP, the “shrunken log2 fold change” value is 0.107. On to RRIRCRPPRLPRPRPRPYTQPRP, for which the “shrunken log2 fold change” value was -1.31. For the sequence RRIRSRPPRLPRPRPRPMPTPRP, the “shrunken log2 fold change” value came to 0.358. Turning to RRIRDRPPRLPRPRPRPKGTPRP, the “shrunken log2 fold change” value was -0.0298.

For the sequence RRIRNRPPRLPRPRPRPDLNPRP, the “shrunken log2 fold change” value was 0.274. On to RRIRMRPPRLPRPRPRPWFMPRP, for which the “shrunken log2 fold change” value was 0.363. In the case of RRIRKRPPRLPRPRPRPNSHPRP, the “shrunken log2 fold change” value was -0.272.

As to RRIRFRPPRLPRPRPRPYVHPRP, the “shrunken log2 fold change” value was -1.75. Take RRIRTRPPRLPRPRPRPHHVPRP: the “shrunken log2 fold change” value was 0.0387.

RRIRARPPRLPRPRPRPCCAPRP: the “shrunken log2 fold change” value is 0.774. The result for RRIRDRPPRLPRPRPRPPKYPRP reads -0.47; that for RRIRERPPRLPRPRPRPRIFPRP, -0.0907; that for RRIRQRPPRLPRPRPRPCRGPRP, 0.104. Take RRIRSRPPRLPRPRPRPVKNPRP: the “shrunken log2 fold change” value amounted to 0.291.

For the sequence RRIRCRPPRLPRPRPRPCRTPRP, the “shrunken log2 fold change” value is -0.168. Take RRIRCRPPRLPRPRPRPFLVPRP: the “shrunken log2 fold change” value was -0.511. RRIRYRPPRLPRPRPRPQRQPRP: the “shrunken log2 fold change” value was -0.00525.

For the sequence RRIRYRPPRLPRPRPRPNQLPRP, the “shrunken log2 fold change” value was -0.439.

For RRIRMRPPRLPRPRPRPIMNPRP, the “shrunken log2 fold change” value came out at 0.284. The result for RRIRTRPPRLPRPRPRPWNRPRP reads -0.0406; that for RRIRVRPPRLPRPRPRPMHFPRP, -0.409. In the case of RRIRDRPPRLPRPRPRPLCQPRP, the “shrunken log2 fold change” value came to 0.0964.

For the sequence RRIRRRPPRLPRPRPRPVKQPRP, the “shrunken log2 fold change” value is -0.0104. Consider RRIRHRPPRLPRPRPRPIHTPRP, for which the “shrunken log2 fold change” value was 0.00096. On to RRIRWRPPRLPRPRPRPWCQPRP, for which the “shrunken log2 fold change” value amounted to 0.121.

For the sequence RRIRMRPPRLPRPRPRPVLSPRP, the “shrunken log2 fold change” value worked out at 0.0984. The result for RRIRCRPPRLPRPRPRPFCVPRP reads -0.248. The result for RRIRKRPPRLPRPRPRPFDFPRP reads 0.0615; that for RRIRGRPPRLPRPRPRPQENPRP, 0.462; that for RRIRIRPPRLPRPRPRPNVEPRP, -0.325. With RRIRPRPPRLPRPRPRPHSAPRP, the “shrunken log2 fold change” value was 0.31. For the sequence RRIRFRPPRLPRPRPRPSQTPRP, the “shrunken log2 fold change” value was -0.304. As for RRIRGRPPRLPRPRPRPCLDPRP, the “shrunken log2 fold change” value was -0.0991. For RRIRRRPPRLPRPRPRPGHPPRP the value was 0.237; for RRIRGRPPRLPRPRPRPRRVPRP, 0.485. The result for RRIRMRPPRLPRPRPRPWICPRP reads 0.0396; that for RRIRNRPPRLPRPRPRPYDTPRP, -0.22; that for RRIRPRPPRLPRPRPRPCRFPRP, 0.086.

For RRIRHRPPRLPRPRPRPITWPRP, the “shrunken log2 fold change” value is -0.149. For RRIRLRPPRLPRPRPRPKQRPRP the value was 0.225; for RRIRWRPPRLPRPRPRPWLFPRP, 0.0264; for RRIRQRPPRLPRPRPRPFFTPRP, -0.343. On to RRIRNRPPRLPRPRPRPAKVPRP, for which the “shrunken log2 fold change” value was -0.0027. As to RRIRCRPPRLPRPRPRPIECPRP, the “shrunken log2 fold change” value was -0.00475. For the sequence RRIRVRPPRLPRPRPRPTDSPRP, the “shrunken log2 fold change” value was -0.115. Regarding RRIRGRPPRLPRPRPRPDYVPRP, the “shrunken log2 fold change” value was 0.66. With RRIRWRPPRLPRPRPRPKISPRP, the “shrunken log2 fold change” value is 0.177. For RRIRKRPPRLPRPRPRPIEYPRP, the “shrunken log2 fold change” value was -0.156.

Turning to RRIRRRPPRLPRPRPRPQLTPRP, the “shrunken log2 fold change” value stood at 0.122. As for RRIRLRPPRLPRPRPRPHLWPRP, the “shrunken log2 fold change” value was 0.0492. The result for RRIRCRPPRLPRPRPRPMRIPRP reads 0.497; that for RRIRARPPRLPRPRPRPCHRPRP, 0.0386; that for RRIRHRPPRLPRPRPRPESVPRP, 0.0222. Consider RRIRARPPRLPRPRPRPWGYPRP, for which the “shrunken log2 fold change” value was -0.317. For the sequence RRIRARPPRLPRPRPRPMIIPRP, the “shrunken log2 fold change” value was -0.0301. Take RRIRLRPPRLPRPRPRPTAFPRP: the “shrunken log2 fold change” value stood at 0.0454.

Regarding RRIRKRPPRLPRPRPRPRAPPRP, the “shrunken log2 fold change” value amounted to 0.538. Consider RRIRIRPPRLPRPRPRPQAEPRP, for which the “shrunken log2 fold change” value turned out to be 0.172. For RRIRLRPPRLPRPRPRPHSPPRP, the “shrunken log2 fold change” value is -0.252.

On to RRIRFRPPRLPRPRPRPPYCPRP, for which the “shrunken log2 fold change” value is -0.448. The result for RRIRCRPPRLPRPRPRPEDVPRP reads -0.0129; that for RRIRSRPPRLPRPRPRPLDTPRP, -0.157. For RRIRLRPPRLPRPRPRPEGFPRP the value was 0.604; for RRIRPRPPRLPRPRPRPDHVPRP, -0.474. Consider RRIRVRPPRLPRPRPRPQDCPRP, for which the “shrunken log2 fold change” value was -0.172. For RRIRPRPPRLPRPRPRPGFCPRP, the “shrunken log2 fold change” value is 0.295. The result for RRIRHRPPRLPRPRPRPVRSPRP reads 0.172; that for RRIRYRPPRLPRPRPRPGLVPRP, -0.217.

In the case of RRIRARPPRLPRPRPRPQGNPRP, the “shrunken log2 fold change” value is -0.144. With RRIRARPPRLPRPRPRPYLGPRP, the “shrunken log2 fold change” value came to 0.0554. For the sequence RRIRQRPPRLPRPRPRPMSNPRP, the “shrunken log2 fold change” value was 0.0758. As for RRIRCRPPRLPRPRPRPPQRPRP, the “shrunken log2 fold change” value is 0.94. RRIRVRPPRLPRPRPRPAQRPRP: the “shrunken log2 fold change” value was determined as 0.184. As to RRIRDRPPRLPRPRPRPRPCPRP, the “shrunken log2 fold change” value stood at 0.429.

On to RRIRQRPPRLPRPRPRPNDVPRP, for which the “shrunken log2 fold change” value came to 0.00724. Turning to RRIRWRPPRLPRPRPRPGTIPRP, the “shrunken log2 fold change” value is -0.283.

For the sequence RRIRMRPPRLPRPRPRPKQVPRP, the “shrunken log2 fold change” value is 0.0554.

Consider RRIRVRPPRLPRPRPRPDMVPRP, for which the “shrunken log2 fold change” value is -0.0411. For RRIRMRPPRLPRPRPRPPSWPRP the value was 0.245; for RRIRYRPPRLPRPRPRPENFPRP, 0.00911; for RRIRERPPRLPRPRPRPRHYPRP, -0.462. As to RRIRDRPPRLPRPRPRPRMLPRP, the “shrunken log2 fold change” value is 0.229. Take RRIRGRPPRLPRPRPRPPKLPRP: the “shrunken log2 fold change” value was 0.524. For the sequence RRIRQRPPRLPRPRPRPLHRPRP, the “shrunken log2 fold change” value is -0.11. For RRIRLRPPRLPRPRPRPFSFPRP, the “shrunken log2 fold change” value was -0.388. Consider RRIRCRPPRLPRPRPRPRKMPRP, for which the “shrunken log2 fold change” value is -0.00382. With RRIRERPPRLPRPRPRPRQSPRP, the “shrunken log2 fold change” value was -0.0972. Turning to RRIRFRPPRLPRPRPRPHVLPRP, the “shrunken log2 fold change” value is -0.286.

In the case of RRIRERPPRLPRPRPRPAFMPRP, the “shrunken log2 fold change” value was -0.154.

Consider RRIRMRPPRLPRPRPRPTFRPRP, for which the “shrunken log2 fold change” value is -0.091. Turning to RRIRWRPPRLPRPRPRPAKKPRP, the “shrunken log2 fold change” value was 0.0808. For RRIRLRPPRLPRPRPRPWSPPRP the value was -0.303.

As for RRIRIRPPRLPRPRPRPQSMPRP, the “shrunken log2 fold change” value was -0.138.

Consider RRIRIRPPRLPRPRPRPAINPRP, for which the “shrunken log2 fold change” value was -0.606. The result for RRIRIRPPRLPRPRPRPRFVPRP reads -0.104; that for RRIRFRPPRLPRPRPRPMSHPRP, 0.00661; that for RRIRVRPPRLPRPRPRPHCKPRP, -0.299.

For the sequence RRIRQRPPRLPRPRPRPFNIPRP, the “shrunken log2 fold change” value was 0.0348. For RRIRRRPPRLPRPRPRPIPEPRP the value was 0.12. Consider RRIRPRPPRLPRPRPRPTCIPRP, for which the “shrunken log2 fold change” value was -0.146.

With RRIRGRPPRLPRPRPRPHIYPRP, the “shrunken log2 fold change” value turned out to be 0.0231.
